Patent US20260258131A1 (ADAGENE PTE, published 2026)
Positions count from the first letter of the chain named. In names and notes the source's numbering stands. Several values for one entry are separate records, joined by “and”; a condition that tells them apart may be missing. Equal entries are not always repeated.

Tests used:
[1] = target: T1, Recombinant human CTLA4-hisFc (human, UniProt P16410 36-161, limits assumed); assay: ELISA, coated CTLA4-hisFc
T1 construct: Coated on the ELISA plate; the whole UniProt entry is named; also called recombinant human CLTA4-hisFc; its antigen; not shown: his tag and Fc
T1 sequence (looked up): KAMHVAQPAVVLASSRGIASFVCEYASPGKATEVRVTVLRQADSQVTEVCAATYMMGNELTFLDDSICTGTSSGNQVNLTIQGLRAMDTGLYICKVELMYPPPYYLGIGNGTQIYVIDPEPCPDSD
Experimental: (§1) Recombinant human CTLA4-hisFc was diluted to 1 μg/mL in PBS and coated on a Maxisorp plate at 4° C. overnight. Plates were blocked with PBS supplemented with 3% non-fat milk at 37° C. for 1 hour. After washing, 100 µL of 3-fold serial dilutions of antibodies were added to each well. After incubation at 37° C. for 1 hour, plates were washed four times, and 100 μL HRP conjugated anti-human IgG (Fab specific) (1:6000 dilution) was added to each well. Plates were incubated at 37° C. for 1 hour, washed four times, and then 50 μL TMB substrate solution was added to each well, and the plate was incubated at room temperature. Absorbance at 450 nm was measured after the reactions were stopped with 50 μL H2SO4 per well. The EC50 was evaluated by fitting the ELISA data using the sigmoidal (four-parameter logistic equation) model of GraphPad Prism 6 software. Experiments for some activatable antibodies were performed twice or more, leading to two or more calculated masking efficiencies being obtained for each of these activatable antibodies.

[2] = target: T2, human CTLA4 expressed on cells (human, UniProt P16410 36-223); assay: cell-based or functional assay
T2 sequence (looked up): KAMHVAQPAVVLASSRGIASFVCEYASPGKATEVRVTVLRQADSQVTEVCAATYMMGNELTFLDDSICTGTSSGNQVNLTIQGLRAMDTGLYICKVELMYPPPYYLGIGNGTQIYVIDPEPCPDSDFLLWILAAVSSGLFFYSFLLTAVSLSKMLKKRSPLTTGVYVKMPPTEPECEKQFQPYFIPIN

[3] = target: T1, Recombinant human CTLA4-hisFc; assay: ELISA, coated CTLA4-hisFc, after MMP-9 cleavage
Experimental: as §1, with “Plates” for “Recombinant human CTLA4-hisFc was diluted to 1 μg/mL in PBS and coated on a Maxisorp plate at 4° C. overnight. Plates”
The purified activatable antibodies were treated with the proteases which recognize the cleavage sequences, and were then tested to determine whether removal of the masking peptide restored their activity. […] The reactions were carried out at 37° C. for 24 hours. […] The masking efficiency was then measured by ELISA as described above.

[4] = target: recombinant mouse CTLA-4 protein (mouse, UniProt P09793 36-161, limits assumed); assay: SPR (Biacore), antibody captured by anti-human IgG Fc, CTLA-4 in flow
Experimental: (§2) Serial dilutions of recombinant CTLA-4 proteins of different species origins were sequentially loaded and flowed through the chip to measure the kinetics of CTLA-4 antigen association (kₐ), followed by a buffer flow-through phase for dissociation kinetics (kd) measurement. The binding affinity (KD) is then calculated with […].

[5] = target: T3, recombinant rat CTLA-4 protein (rat, UniProt Q62859 36-161); assay: as above
T3 sequence: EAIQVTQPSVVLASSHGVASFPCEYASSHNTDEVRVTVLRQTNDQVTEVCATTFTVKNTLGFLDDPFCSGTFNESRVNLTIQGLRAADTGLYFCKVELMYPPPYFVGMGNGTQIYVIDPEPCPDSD
Experimental: as §2

[6] = target: T4, biotinylated CTLA-4 protein (UniProt P16410 36-161, limits assumed, biotinylated (sites not given)); assay: competition ELISA, biotinylated CTLA-4 on coated CD80 (competitor CD80)
T4 construct: also called receptor CTLA-4
T4 sequence (looked up): T1 sequence (looked up)
Source text: (§3) Relative CTLA-4 and its ligand binding was monitored by reading the absorbance at 450 nm wavelength in the micro-plate reader.

[7] = target: T4, biotinylated CTLA-4 protein; assay: competition ELISA, biotinylated CTLA-4 on coated CD86 (competitor CD86)
Source text: as §3

B1: TY24148 (antibody, human IgG1, kappa)
heavy: not shown
light: EVGSYVLCAKFPFCITSGRSAGGGGTPLGLAGSGGSDIQLTQSPSSLSASVGDRVTITCRASQSVRGRFLAWYQQKPGKAPKLLIYDASNRATGIPSRFSGSGSGTDFTLTISSLQPEDFATYYCQQSSSWPPTFGQGTKVEIKRTVAAPSVFIFPPSDEQLKSGTASVVCLLNNFYPREAKVQWKVDNALQSGNSQESVTEQDSKDSTYSLSSTLTLSKADYEKHKVYACEVTHQGLSSPVTKSFNRGEC
[1]
  EC50: 150 nM
  Masking efficiency (EC50 / EC50 of TY21580): 436 fold

B2: TY24460 (antibody, human IgG1, kappa)
heavy: not shown
light: EVGSYSSCKAPYPYCKGSGGGPLGLAGGSDIQLTQSPSSLSASVGDRVTITCRASQSVRGRFLAWYQQKPGKAPKLLIYDASNRATGIPSRFSGSGSGTDFTLTISSLQPEDFATYYCQQSSSWPPTFGQGTKVEIKRTVAAPSVFIFPPSDEQLKSGTASVVCLLNNFYPREAKVQWKVDNALQSGNSQESVTEQDSKDSTYSLSSTLTLSKADYEKHKVYACEVTHQGLSSPVTKSFNRGEC
[1]
  EC50: 339 nM

B3: TY24465 (antibody, human IgG1, kappa)
heavy: not shown
light: EVGSYTLCEPFATSVCRPGGGPLGLAGGSDIQLTQSPSSLSASVGDRVTITCRASQSVRGRFLAWYQQKPGKAPKLLIYDASNRATGIPSRFSGSGSGTDFTLTISSLQPEDFATYYCQQSSSWPPTFGQGTKVEIKRTVAAPSVFIFPPSDEQLKSGTASVVCLLNNFYPREAKVQWKVDNALQSGNSQESVTEQDSKDSTYSLSSTLTLSKADYEKHKVYACEVTHQGLSSPVTKSFNRGEC
[1]
  EC50: 2.33 µM (2×) and 1.2 µM (2×)

B4: TY24459 (antibody, human IgG1, kappa)
heavy: not shown
light: B2 light with G20R
[1]
  EC50: 209 nM

B5: TY24462 (antibody, human IgG1, kappa)
heavy: not shown
light: ESSCKAPYPYCKGSGGGPLGLAGGSDIQLTQSPSSLSASVGDRVTITCRASQSVRGRFLAWYQQKPGKAPKLLIYDASNRATGIPSRFSGSGSGTDFTLTISSLQPEDFATYYCQQSSSWPPTFGQGTKVEIKRTVAAPSVFIFPPSDEQLKSGTASVVCLLNNFYPREAKVQWKVDNALQSGNSQESVTEQDSKDSTYSLSSTLTLSKADYEKHKVYACEVTHQGLSSPVTKSFNRGEC
[1]
  EC50: 314 nM

B6: TY24040 (antibody, human IgG1, kappa)
heavy: not shown
light: DIQLTQSPSSLSASVGDRVTITCRASQSVRGRFLAWYQQKPGKAPKLLIYDASNRATGIPSRFSGSGSGTDFTLTISSLQPEDFATYYCQQSSSWPPTFGQGTKVEIKRTVAAPSVFIFPPSDEQLKSGTASVVCLLNNFYPREAKVQWKVDNALQSGNSQESVTEQDSKDSTYSLSSTLTLSKADYEKHKVYACEVTHQGLSSPVTKSFNRGEC
[2]
  ADCP reporter activity (luciferase), EC50: 2.04 nM

B7: TY24652-MMP9 (antibody, IgG1)
heavy: not shown
light: B6 light
notes: TY24652 after 24 h with MMP-9; IgG1 Fc with S239D/I332E
[3]
  EC50: 0.313 nM
[4]
  Kd: 0.63 nM
[5]
  Kd: 0.69 nM
[6]
  IC50: 280 nM
[7]
  IC50: 17.5 nM

B8: TY24649-MMP9 (antibody, human IgG1)
heavy: not shown
light: B6 light
notes: TY24649 after 24 h with MMP-9; Wild-type human IgG1 Fc; also called TY24649 treated with recombinant human MMP-9
[3]
  EC50: 0.286 nM

B9: TY24461 (antibody, human IgG1, kappa)
heavy: not shown
light: EVGSYSSCKAPYPYCKGGGGPLGLAGGSDIQLTQSPSSLSASVGDRVTITCRASQSVRGRFLAWYQQKPGKAPKLLIYDASNRATGIPSRFSGSGSGTDFTLTISSLQPEDFATYYCQQSSSWPPTFGQGTKVEIKRTVAAPSVFIFPPSDEQLKSGTASVVCLLNNFYPREAKVQWKVDNALQSGNSQESVTEQDSKDSTYSLSSTLTLSKADYEKHKVYACEVTHQGLSSPVTKSFNRGEC
[1]
  EC50: 310 nM

B10: TY24463 (antibody, human IgG1, kappa)
heavy: not shown
light: EVGSYTLCEPFATSVCRPSGRGPLGLAGGSDIQLTQSPSSLSASVGDRVTITCRASQSVRGRFLAWYQQKPGKAPKLLIYDASNRATGIPSRFSGSGSGTDFTLTISSLQPEDFATYYCQQSSSWPPTFGQGTKVEIKRTVAAPSVFIFPPSDEQLKSGTASVVCLLNNFYPREAKVQWKVDNALQSGNSQESVTEQDSKDSTYSLSSTLTLSKADYEKHKVYACEVTHQGLSSPVTKSFNRGEC
[1]
  EC50: 996 nM

B11: TY24464 (antibody, human IgG1, kappa)
heavy: not shown
light: B10 light with R21G
[1]
  EC50: 2140 nM

B12: TY24466 (antibody, human IgG1, kappa)
heavy: not shown
light: ETLCEPFATSVCRPSGGGPLGLAGGSDIQLTQSPSSLSASVGDRVTITCRASQSVRGRFLAWYQQKPGKAPKLLIYDASNRATGIPSRFSGSGSGTDFTLTISSLQPEDFATYYCQQSSSWPPTFGQGTKVEIKRTVAAPSVFIFPPSDEQLKSGTASVVCLLNNFYPREAKVQWKVDNALQSGNSQESVTEQDSKDSTYSLSSTLTLSKADYEKHKVYACEVTHQGLSSPVTKSFNRGEC
[1]
  EC50: 3.17 µM (2×) and 2.23 µM (2×)

B13: TY24851 (antibody, IgG1, V domains shown)
VH: EVQLVESGGGLVQPGGSLRLSCAASGYSISSGYHWSWIRQAPGKGLEWLARIDWDDDKYYSTSLKSRLTISRDNSKNTLYLQLNSLRAEDTAVYYCARSYVYFDYWGQGTLVTVSS
VL: ETLCEPFATSVCRPGGGGSGGSGGGSDIQLTQSPSSLSASVGDRVTITCRASQSVRGRFLAWYQQKPGKAPKLLIYDASNRATGIPSRFSGSGSGTDFTLTISSLQPEDFATYYCQQSSSWPPTFGQGTKVEIKR
notes: also called non-cleavable antibody TY24851
[1]
  EC50: 25.8 nM

B14: TY24841 (antibody, V domains shown)
VH: B13 VH
VL: B13 VL
[1]
  EC50: 34.9 nM

B15: TY24149 (antibody, human IgG1, kappa)
heavy: not shown
light: EVGSYPPCVGFYPYCKTSGRSAGGGGTPLGLAGSGGSDIQLTQSPSSLSASVGDRVTITCRASQSVRGRFLAWYQQKPGKAPKLLIYDASNRATGIPSRFSGSGSGTDFTLTISSLQPEDFATYYCQQSSSWPPTFGQGTKVEIKRTVAAPSVFIFPPSDEQLKSGTASVVCLLNNFYPREAKVQWKVDNALQSGNSQESVTEQDSKDSTYSLSSTLTLSKADYEKHKVYACEVTHQGLSSPVTKSFNRGEC
[1]
  EC50: 123 nM and 122 nM
  Masking efficiency (EC50 / EC50 of TY21580): 356 fold

B16: TY24155 (antibody, human IgG1, kappa)
heavy: not shown
light: B15 light with P6S, P7S, V9K, G10A, F11P, T17G
[1]
  EC50: 438 nM (2×) and 210 nM (2×)
